The record followed here is publication PMC3684756 (MicrobiologyOpen, 2013).

The series concerns the molecule itself. Kind of series: Thioflavin T amyloid formation assay.

B1: His-Lsm4^1–170 (domain or fragment)
chain: MLPLYLLTNAKGQQMQIELKNGEIIQGILTNVDNWMNLTLSNVTEYSEESAINSEDNAESSKAVKLNEIYIRGTFIKFIKLQDNIIDKVKQQINSNNNSNSNGPGHKRYYNNRDSNNNRGNYNRRNNNNGNSNRRPYSQNRQYNNSNSSNINNSINSINSNNQNMNNGLG
Consider B1, for which the binding result was “binds”.
